One block for each binder: values may come before it.
Molecular target: T1, Rb1 tumor suppressor protein (human, UniProt P06400 2-928)
T1 construct: Native protein from K562 lysate; also called pRb1; hypophosphorylated form of Rb1
T1 sequence (looked up): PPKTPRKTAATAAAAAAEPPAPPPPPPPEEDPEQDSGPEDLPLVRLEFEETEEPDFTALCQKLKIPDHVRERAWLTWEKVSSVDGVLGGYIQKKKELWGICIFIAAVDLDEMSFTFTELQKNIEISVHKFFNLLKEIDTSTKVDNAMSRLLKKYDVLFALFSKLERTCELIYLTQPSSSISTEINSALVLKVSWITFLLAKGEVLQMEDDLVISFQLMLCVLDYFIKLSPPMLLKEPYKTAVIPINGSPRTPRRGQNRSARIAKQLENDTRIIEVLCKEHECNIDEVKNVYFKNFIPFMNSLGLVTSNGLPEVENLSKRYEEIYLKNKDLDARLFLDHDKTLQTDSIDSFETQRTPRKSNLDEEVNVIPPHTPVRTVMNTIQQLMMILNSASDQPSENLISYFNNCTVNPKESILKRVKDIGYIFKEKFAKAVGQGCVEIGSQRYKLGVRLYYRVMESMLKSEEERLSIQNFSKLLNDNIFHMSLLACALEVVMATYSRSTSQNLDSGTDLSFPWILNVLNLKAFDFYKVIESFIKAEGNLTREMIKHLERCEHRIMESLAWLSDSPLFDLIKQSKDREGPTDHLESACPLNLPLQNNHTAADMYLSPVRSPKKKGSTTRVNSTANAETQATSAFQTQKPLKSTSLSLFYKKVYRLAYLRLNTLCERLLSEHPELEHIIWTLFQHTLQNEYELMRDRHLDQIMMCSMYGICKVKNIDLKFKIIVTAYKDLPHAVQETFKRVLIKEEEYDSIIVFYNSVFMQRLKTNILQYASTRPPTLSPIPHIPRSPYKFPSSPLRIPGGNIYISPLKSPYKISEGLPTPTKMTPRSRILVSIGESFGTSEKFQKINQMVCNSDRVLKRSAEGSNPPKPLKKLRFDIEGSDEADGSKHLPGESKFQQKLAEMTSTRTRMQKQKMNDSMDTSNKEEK
Assay: GST pull-down from K562 lysate, Western blot with anti-Rb1
Excerpt: As precipitation controls, aliquots of the K562 lysate were immunoprecipitated with anti-Rb1 antibody IF8 or normal rabbit sera. Bound proteins were separated by electrophoresis in a 7% SDS-polyacrylamide gel and transferred to a nitrocellulose membrane. An aliquot of the K-562 crude lysate was included as a positive control for Western analysis. Proteins were visualized by probing the blot with anti-Rb1 antibodies IF-8 or C15. […] Bound proteins were separated by electrophoresis in a 7% SDS-polyacrylamide gel and transferred to a nitrocellulose membrane. Proteins were visualized by probing the blot with anti-Rb1 antibodies IF8 or C15.
Glutathione S-transferase (GST)-P2P fusion proteins were expressed and recovered on glutathione-sepharose beads as described above. Whole-cell lysates of K562 cells (1 ×10^7 cells/sample) were rocked with the beads for 1 hour at 4° C. and then washed five times with NETN buffer. The beads were then boiled in 1× SDS loading buffer and the proteins separated on SDS-polyacrylamide gels and transferred to nitrocellulose membranes. Competition experiments were performed by adding an excess of the 6X-His E1a fusion protein to the cellular lysates prior to the addition of the GST-P2P fusion proteins. The Rb1 protein was visualized by immunoblotting using anti-Rb1 antibodies IF8 or C15 (Santa Cruz Biotechnology, Santa Cruz, Calif.). These antibodies were also used to immunoprecipitate native Rb1 from the cellular lysates to serve as a positive control following the manufacturers' protocol.

binding result: no binding
B1: GST-P2P (918-1095) fusion protein (other, not shown: a dimerising Fc or GST)
chain: RPRSLRKINYLIAREKNEREKRKKSVDKDFESSSMKISKVEGTEIVKPSPKRKMEGDVEKLERTPEKDKIASSTTPAKKIKLNRETGKKIGNAENASTTKEPSEKLESTSSKIKQEKVKGKAKRKVAGSEGSSSTLVDYTSTSSTGGSPVRKSEEKTDTKRTVIKTMEEYNNDNTAPA

binding result: no binding
B2: GST-P2P (1-332) fusion protein (other, not shown: a dimerising Fc or GST)
chain: MMEVKDPNMKGAMLTNTGKYAIPTIDAEAYAIGKKEKPPFLPEEPSSSSEEDDPIPAELLCLICKDIMTDAVVIPCCGNSSCDECIRTTLLESDKHTCPTCHQNDVSPDALIANKFLRQAVNNFKNETGYTKRLRKQLPPFLFLVPPPRPLSQRNLQPRSRSPILRQQDPVVFRYTVSPTCSDTKTAGSCSDSGTLSRLPAPSISSLTSNQSSLAPPVSGNPSSAPAPVPDITATVSISVHSEKSDGPFRDSDNKLLPAAALTSEHSKGASSIAITALMEEKGVPGTSPWNSIFVGQSLLHGQLIPTTGPVRINAARPGGGRPGWEHSNKLG

binding result: no binding
B3: GST-P2P (494-688) fusion protein (other, not shown: a dimerising Fc or GST)
chain: AQHIHALTLSPSAAHTLDLLHDHPHPPEEAEARSAMIVHMPDLMDIAHARSRSPPYRRYRSRSRSPPEFRGQSPTKRNVPREEKEREYFNRYREVPPPYDIKAYYGRSVDFRDPFEKERYREWERKYREWYEKYYKGYAVGAQPRPSANREDFSPERLLPLNIRNSPFTRGRREDYAAGQSHRNRNLGGNYPEKL
notes: also called GST-P2P (484-688)

From patent US6368790 (UNIVERSITY OF TENNESSEE RESEARCH, dated 2002)
